These results are taken from article doi:10.1101/2025.08.22.671756.

For this assay, the target named is Drosophila melanogaster insulin receptor ectodomain (dmIR-ECD) (Drosophila melanogaster) (UniProt P09208). Kind of assay: cryo-EM structure.
Drosophila melanogaster insulin receptor ectodomain (dmIR-ECD) (Drosophila melanogaster), sequence (P09208 291-1309): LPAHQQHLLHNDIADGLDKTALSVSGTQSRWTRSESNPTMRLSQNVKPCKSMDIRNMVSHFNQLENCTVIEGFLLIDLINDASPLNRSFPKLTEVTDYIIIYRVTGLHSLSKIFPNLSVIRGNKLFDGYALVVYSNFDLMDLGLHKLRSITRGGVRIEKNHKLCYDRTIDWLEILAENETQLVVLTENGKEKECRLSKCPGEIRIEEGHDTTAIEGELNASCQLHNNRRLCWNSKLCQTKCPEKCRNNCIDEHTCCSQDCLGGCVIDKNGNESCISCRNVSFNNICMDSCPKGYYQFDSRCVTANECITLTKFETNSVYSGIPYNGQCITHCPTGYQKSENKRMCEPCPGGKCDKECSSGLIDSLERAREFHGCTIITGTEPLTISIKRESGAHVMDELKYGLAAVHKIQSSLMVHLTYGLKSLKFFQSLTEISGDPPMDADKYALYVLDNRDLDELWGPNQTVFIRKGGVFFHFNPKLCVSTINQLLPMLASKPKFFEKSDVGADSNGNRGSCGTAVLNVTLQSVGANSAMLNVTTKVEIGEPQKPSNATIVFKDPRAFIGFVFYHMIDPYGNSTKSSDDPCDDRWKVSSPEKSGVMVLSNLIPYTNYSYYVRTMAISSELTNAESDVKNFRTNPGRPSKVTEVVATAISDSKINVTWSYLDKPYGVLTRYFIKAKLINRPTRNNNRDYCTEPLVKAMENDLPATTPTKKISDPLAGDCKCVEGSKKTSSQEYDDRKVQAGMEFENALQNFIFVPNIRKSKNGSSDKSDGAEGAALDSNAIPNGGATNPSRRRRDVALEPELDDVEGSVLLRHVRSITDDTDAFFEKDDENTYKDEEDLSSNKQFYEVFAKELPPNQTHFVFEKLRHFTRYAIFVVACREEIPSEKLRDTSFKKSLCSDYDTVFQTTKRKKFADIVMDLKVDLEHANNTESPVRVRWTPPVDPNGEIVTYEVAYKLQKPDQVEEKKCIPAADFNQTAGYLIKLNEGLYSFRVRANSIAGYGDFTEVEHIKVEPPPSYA

Drosophila insulin-like peptide 2 (DILP2), synthetic two-chain hormone with the A-chain starting at GlnA5 (ligand), sequence (Q9VT51 27-137): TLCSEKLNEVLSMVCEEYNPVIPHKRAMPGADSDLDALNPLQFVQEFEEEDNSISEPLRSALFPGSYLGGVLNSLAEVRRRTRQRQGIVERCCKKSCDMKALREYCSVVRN

“Drosophila insulin-like peptide 2 (DILP2), synthetic two-chain hormone with the A-chain starting at GlnA5 (ligand)” had a stoichiometry N (DILP2 per dmIR-ECD (conformer 1)) of 1 and a stoichiometry N (DILP2 per dmIR-ECD (conformer 2)) of 2.
